Target: iBoNT/A (protease inactive version of BoNT/A) (Clostridium botulinum)
Assay: SPR (BIAcore), […] ([…] to […])

Q: Which Kd does the source give for “SV2C529-566 (luminal part of SV2C) (peptide)” here?
A: The Kd was 5000 nM.

Q: How did the Kd turn out when “sFGFR3 (loop 2 and 3 of the extra cellular domain of FGFR3) (receptor)” was run?
A: Its Kd is 10 nM.

Source: patent US20090263836A1
